Measurements as given in PMC9806585.

Substrate: NC(=O)CC[C@H](N)C(=O)O
Assay: cells, lysate or membranes
Conditions: standard assay: 0.4 mM oxaloacetate, pyridoxal phosphate, 150 mM sodium borate pH 8.5, 37 °C, enzyme not fully purified

B1: recombinant Arabidopsis GTK (Gln transaminase K) (Arabidopsis thaliana) (protein)
chain: MYLDINGVMIKQFSFKASLLPFSSNFRQSSAKIHRPIGATMTTVSTQNESTQKPVQVAKRLEKFKTTIFTQMSILAVKHGAINLGQGFPNFDGPDFVKEAAIQAIKDGKNQYARGYGIPQLNSAIAARFREDTGLVVDPEKEVTVTSGCTEAIAAAMLGLINPGDEVILFAPFYDSYEATLSMAGAKVKGITLRPPDFSIPLEELKAAVTNKTRAILMNTPHNPTGKMFTREELETIASLCIENDVLVFSDEVYDKLAFEMDHISIASLPGMYERTVTMNSLGKTFSLTGWKIGWAIAPPHLTWGVRQAHSYLTFATSTPAQWAAVAALKAPESYFKELKRDYNVKKETLVKGLKEVGFTVFPSSGTYFVVADHTPFGMENDVAFCEYLIEEVGVVAIPTSVFYLNPEEGKNLVRFAFCKDEETLRGAIERMKQKLKRKV
Question: How did the Km turn out when B1 was run?
Answer: 300 µM
